Measured values published in paper PMC12106912 (International Journal of Nanomedicine, 2025).

Target: Glypican-3 (GPC3), surface antigen of HepG2 cells (Homo sapiens (endogenous, HepG2), UniProt P51654)
Test: co-IP

Sequence of Glypican-3 (GPC3), surface antigen of HepG2 cells (P51654 25-580): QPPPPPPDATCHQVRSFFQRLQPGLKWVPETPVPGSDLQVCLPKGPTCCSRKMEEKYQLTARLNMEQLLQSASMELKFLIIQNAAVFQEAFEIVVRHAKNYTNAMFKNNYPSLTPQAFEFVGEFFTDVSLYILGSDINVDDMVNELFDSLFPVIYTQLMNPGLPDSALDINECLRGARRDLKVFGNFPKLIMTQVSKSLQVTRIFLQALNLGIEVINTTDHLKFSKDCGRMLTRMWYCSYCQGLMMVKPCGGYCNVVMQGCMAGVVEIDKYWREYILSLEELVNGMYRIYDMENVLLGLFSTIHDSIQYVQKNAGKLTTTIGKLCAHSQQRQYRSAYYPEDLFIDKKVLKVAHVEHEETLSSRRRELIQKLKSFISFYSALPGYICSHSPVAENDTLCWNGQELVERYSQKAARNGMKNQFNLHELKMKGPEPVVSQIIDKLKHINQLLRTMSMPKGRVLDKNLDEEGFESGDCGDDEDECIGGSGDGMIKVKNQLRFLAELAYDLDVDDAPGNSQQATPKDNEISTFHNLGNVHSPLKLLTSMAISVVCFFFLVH

binding result: binds
B1: Hbp-hGC33-scFv/Myc fusion protein displayed on the membrane surface of E. coli outer membrane vesicles (hGC33-OMVs) (scFv, V domains shown)
VH: QVQLVQSGAEVKKPGASVKVSCKASGYTFTDYEMHWVRQAPGQGLEWMGALDPKTGDTAYSQKFKGRVTLTADKSTSTAYMELSSLTSEDTAVYYCTRFYSYTYWGQGTLVTVSS
VL: DVVMTQSPLSLPVTPGEPASISCRSSQSLVHSNGNTYLHWYLQKPGQSPQLLIYKVSNRFSGVPDRFSGSGSGTDFTLKISRVEAEDVGVYYCSQNTHVPPTFGQGTKLEIK
